Assay results reported in paper doi:10.1101/282814 (bioRxiv, 2018).

B1: human TRPC6 channel, full length, tags cleaved, in MSP2N2 lipid nanodiscs (natural protein, UniProt Q9Y210 1-931, looked up)
chain: MSQSPAFGPRRGSSPRGAAGAAARRNESQDYLLMDSELGEDGCPQAPLPCYGYYPCFRGSDNRLAHRRQTVLREKGRRLANRGPAYMFSDRSTSLSIEEERFLDAAEYGNIPVVRKMLEECHSLNVNCVDYMGQNALQLAVANEHLEITELLLKKENLSRVGDALLLAISKGYVRIVEAILSHPAFAEGKRLATSPSQSELQQDDFYAYDEDGTRFSHDVTPIILAAHCQEYEIVHTLLRKGARIERPHDYFCKCNDCNQKQKHDSFSHSRSRINAYKGLASPAYLSLSSEDPVMTALELSNELAVLANIEKEFKNDYKKLSMQCKDFVVGLLDLCRNTEEVEAILNGDVETLQSGDHGRPNLSRLKLAIKYEVKKFVAHPNCQQQLLSIWYENLSGLRQQTMAVKFLVVLAVAIGLPFLALIYWFAPCSKMGKIMRGPFMKFVAHAASFTIFLGLLVMNAADRFEGTKLLPNETSTDNAKQLFRMKTSCFSWMEMLIISWVIGMIWAECKEIWTQGPKEYLFELWNMLDFGMLAIFAASFIARFMAFWHASKAQSIIDANDTLKDLTKVTLGDNVKYYNLARIKWDPSDPQIISEGLYAIAVVLSFSRIAYILPANESFGPLQISLGRTVKDIFKFMVIFIMVFVAFMIGMFNLYSYYIGAKQNEAFTTVEESFKTLFWAIFGLSEVKSVVINYNHKFIENIGYVLYGVYNVTMVIVLLNMLIAMINSSFQEIEDDADVEWKFARAKLWFSYFEEGRTLPVPFNLVPSPKSLFYLLLKLKKWISELFQGHKKGFQEDAEMNKINEEKKLGILGSHEDLSKLSLDKKQVGHNKQPSIRSSEDFHLNSFNNPPRQYQKIMKRLIKRYVLQAQIDKESDEVNEGELKEIKQDISSLRYELLEEKSQNTEDLAELIRELGEKLSMEPNQEETNR
B2: N-terminal GFP-tagged hTRPC6 (natural protein, human, UniProt Q9Y210 1-931, looked up)
chain: B1 chain

How the values were obtained:
cryo-EM structure = target: the molecule itself; test: cryo-EM structure
SEC = target: the molecule itself; test: SEC

Protein | stoichiometry N (cryo-EM structure) | stoichiometry N (SEC)
B1 | 4 | 
B2 |  | 4
